Results reported in US20220389118A1 (Chugai, published 2022).
Positions count from the first letter of the chain named. Names and notes keep the numbering of the source.

Experiments:
[1] = molecular target: T1, human FcγRIIIa type V (V158) extracellular domain with C-terminal His tag (human, UniProt P08637 17-208); assay: SPR (Biacore), antibody captured, FcγR analyte
T1 construct: extracellular domain; also called FcγRIIIaV; not shown: His tag at the C terminus

[2] = molecular target: T2, human FcγRIIb extracellular domain with C-terminal His tag (human, UniProt P31994 43-217); assay: SPR, amount of binding
T2 construct: extracellular domain; for crystals expressed with kifunensine and trimmed with Endo F1; also called FcγRIIb extracellular region
T2 sequence (looked up): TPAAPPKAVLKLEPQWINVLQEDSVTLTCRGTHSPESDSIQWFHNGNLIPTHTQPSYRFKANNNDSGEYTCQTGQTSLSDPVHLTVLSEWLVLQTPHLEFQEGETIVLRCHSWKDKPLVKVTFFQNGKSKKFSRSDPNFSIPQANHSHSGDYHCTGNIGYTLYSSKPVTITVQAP
Excerpt: (§1) These variants were expressed and purified by the method of Reference Example 2. These Fc variants are called PD variants. Interactions of each PD variant with FcγRIIa type R and FcγRIIb were comprehensively evaluated by the method of Reference Example 25.

[3] = molecular target: T3, human FcγRIIa type R extracellular domain with C-terminal His tag (human, UniProt P12318 34-217); assay: SPR, amount of binding
T3 construct: extracellular domain; also called FcγRIIaR; FcγRIIa R
T3 sequence (looked up): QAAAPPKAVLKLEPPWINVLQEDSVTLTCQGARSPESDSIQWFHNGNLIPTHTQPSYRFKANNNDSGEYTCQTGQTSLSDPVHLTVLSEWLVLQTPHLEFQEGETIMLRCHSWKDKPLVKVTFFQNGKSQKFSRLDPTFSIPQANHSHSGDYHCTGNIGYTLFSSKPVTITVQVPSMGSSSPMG
Excerpt: as §1

[4] = molecular target: T4, human FcγRIIa type R extracellular domain with C-terminal His tag (human, UniProt P12318 34-217); assay: SPR (Biacore)
T4 construct: extracellular domain; also called FcγRIIaR; FcγRIIa(R)
T4 sequence (looked up): T3 sequence (looked up)

[5] = molecular target: T5, human FcγRIa extracellular domain with C-terminal His tag (human, UniProt P12314 16-292); assay: SPR (Biacore)
T5 construct: extracellular domain
T5 sequence (P12314 16-292): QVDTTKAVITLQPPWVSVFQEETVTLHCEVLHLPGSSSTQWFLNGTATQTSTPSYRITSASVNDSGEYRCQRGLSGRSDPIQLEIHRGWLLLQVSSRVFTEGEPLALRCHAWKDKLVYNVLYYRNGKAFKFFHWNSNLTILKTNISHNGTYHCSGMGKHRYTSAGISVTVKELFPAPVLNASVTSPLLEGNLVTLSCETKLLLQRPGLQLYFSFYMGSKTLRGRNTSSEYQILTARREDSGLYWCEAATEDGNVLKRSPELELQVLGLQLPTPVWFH

[6] = molecular target: T6, human FcγRIIb extracellular domain with C-terminal His tag (human, UniProt P31994 43-217); assay: SPR (Biacore)
T6 construct: extracellular domain
T6 sequence (looked up): T2 sequence (looked up)

[7] = molecular target: T7, human FcγRIIIa type V extracellular domain with C-terminal His tag (human, UniProt P08637 17-208); assay: SPR (Biacore)
T7 construct: extracellular domain; also called FcγRIIIaV; FcγRIIIa(V)

[8] = molecular target: T8, human FcγRIIa type R (R131) extracellular domain with C-terminal His tag (human, UniProt P12318 34-217); assay: SPR (Biacore); KD of IL6R-B3/IL6R-L divided by KD of this antibody
T8 construct: extracellular domain; also called FcγRIIaR; not shown: His tag at the C terminus
T8 sequence (looked up): T3 sequence (looked up)

[9] = molecular target: T9, human FcγRIIb extracellular domain with C-terminal His tag (human, UniProt P31994 43-217); assay: as above
T9 construct: extracellular domain; not shown: His tag at the C terminus
T9 sequence (looked up): T2 sequence (looked up)

[10] = molecular target: T9, human FcγRIIb extracellular domain with …; assay: SPR (Biacore); KD for FcγRIIaR divided by KD for FcγRIIb
[11] = molecular target: T8, human FcγRIIa type R (R131) …; assay: SPR (Biacore), antibody captured, FcγR analyte
[12] = molecular target: T10, human FcγRIa extracellular domain with C-terminal His tag (human, UniProt P12314 16-292); assay: SPR (Biacore), antibody captured, FcγR analyte
T10 construct: not shown: His tag at the C terminus
T10 sequence (P12314 16-292): as above

[13] = molecular target: T9, human FcγRIIb extracellular domain with …; assay: SPR (Biacore), antibody captured, FcγR analyte
[14] = molecular target: T2, human FcγRIIb extracellular domain with …; assay: SPR
[15] = molecular target: T3, human FcγRIIa type R extracellular …; assay: SPR
human IgE [16] = molecular target: T11, human IgE (human); assay: SPR (Biacore T200), human IgE held on SA chip by biotinylated GPC3 peptide, antibody as analyte, 37 C; pH7.4, 1.2 mM Ca; pH7.4, 1.2 mM Ca; 37 C; pH 7.4
T11 construct: Recombinant human IgE used as the antigen; its variable region is from an anti-human glypican 3 antibody; held on the chip by a biotinylated GPC3 peptide; also called hIgE
Description: (§2) Measurements were carried out using the following three types of running buffers:
(§3) An appropriate concentration of human IgE was injected and captured by the biotinylated GPC3 peptide to immobilize human IgE on the chip. […] Then, 10 mmol/L glycine-HCl (pH 1.5) was injected to regenerate the sensor chip. All of the assay for the interaction was performed at 37° C. Using Biacore T200 Evaluation Software (GE Healthcare), the assay results were analyzed by curve fitting to determine the binding rate constant ka (1/Ms) and dissociation rate constant kd (1/s). Dissociation constant KD (M) was calculated from the above constants.

human IgE [17] = molecular target: T11, human IgE; assay: SPR (Biacore T200), human IgE held on SA chip by biotinylated GPC3 peptide, antibody as analyte, 37 C; pH5.8, 3 µM Ca; pH 5.8
Description: as §2, §3

human IgE [18] = molecular target: T11, human IgE; assay: SPR (Biacore T200), human IgE held on SA chip by biotinylated GPC3 peptide, antibody as analyte, 37 C; pH5.8, 1.2 mM Ca; pH 5.8
Description: as §2, §3

human IgE [19] = molecular target: T11, human IgE; assay: SPR (Biacore T200), human IgE held on SA chip by biotinylated GPC3 peptide, antibody as analyte, 37 C; pH7.4, 1.2 mM Ca; pH 7.4
Description: as §2, §3

T11 sequence (heavy, as listed by the source, chain 1 of 2, other chains not shown): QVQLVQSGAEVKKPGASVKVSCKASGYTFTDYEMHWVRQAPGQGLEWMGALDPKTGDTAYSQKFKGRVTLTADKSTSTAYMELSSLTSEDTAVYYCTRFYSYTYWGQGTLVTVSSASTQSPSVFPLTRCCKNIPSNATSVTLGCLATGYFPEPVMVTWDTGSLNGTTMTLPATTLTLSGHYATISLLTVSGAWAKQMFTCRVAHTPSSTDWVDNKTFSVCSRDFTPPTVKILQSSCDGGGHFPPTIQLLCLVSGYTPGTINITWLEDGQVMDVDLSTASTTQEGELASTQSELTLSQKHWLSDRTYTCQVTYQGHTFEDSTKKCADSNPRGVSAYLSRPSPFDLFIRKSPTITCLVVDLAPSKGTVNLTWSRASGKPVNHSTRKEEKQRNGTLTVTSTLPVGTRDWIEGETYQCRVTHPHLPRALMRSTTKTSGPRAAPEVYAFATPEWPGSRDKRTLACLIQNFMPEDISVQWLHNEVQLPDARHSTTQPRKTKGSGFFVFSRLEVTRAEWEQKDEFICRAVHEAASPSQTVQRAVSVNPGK
T1 sequence (P08637 17-208 F176V): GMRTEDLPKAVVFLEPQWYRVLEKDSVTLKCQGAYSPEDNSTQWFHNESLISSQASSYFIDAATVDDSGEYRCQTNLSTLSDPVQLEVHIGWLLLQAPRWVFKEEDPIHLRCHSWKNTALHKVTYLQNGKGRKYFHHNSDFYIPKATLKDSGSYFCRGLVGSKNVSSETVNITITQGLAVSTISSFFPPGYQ
T7 sequence (P08637 17-208 F176V): as above

B1: IL6R-BP462/IL6R-L (antibody, human IgG1, kappa)
heavy: QVQLQESGPGLVKPSETLSLTCAVSGHSISHDHAWSWVRQPPGEGLEWIGFISYSGITNYNPSLQGRVTISRDNSKNTLYLQMNSLRAEDTAVYYCARSLARTTAMDYWGEGTLVTVSSASTKGPSVFPLAPSSKSTSGGTAALGCLVKDYFPEPVTVSWNSGALTSGVHTFPAVLQSSGLYSLSSVVTVPSSSLGTQTYICNVNHKPSNTKVDKKVEPKSCDKTHTCPPCPAPDLLGDDSVFLFPPKPKDTLMISRTPEVTCVVVDVAEEDGEVKFNWYVDGVEVHNAKTKPREEQYNSTYRVVSVLTVLHQDWLNGKEYKCKVSNKALPRPIEKTISKAKGQPREPQVYTLPPSRDELTKNQVSLTCLVKGFYPSDIAVEWESNGQPENNYKTTPVVLDSDGSFFLYSKLTVDKSRWQQGNVFSCSVMHEALHNHYTQESLSLSP
light: not shown
notes: P396V introduced into IL6R-BP423; copies: 2 + 2
**Q.** With B1 as the binder, how does the Kd [1] read?
**A.** 9 µM

B2: IL6R-F652/IL6R-L (antibody, human IgG1, kappa)
heavy: B1 heavy with D235E, D239G, M254Y, A269S, E270H, G273P, R332A, V398P, N436Y, E441K
light: not shown
notes: IL6R-F11 with P238D (EU numbering); copies: 2 + 2
**Q.** With B2 as the binder, how does the “relative binding activity” value [2] read?
**A.** 100 IL6R-F652/IL6R-L = 100

**Q.** What about the “relative binding activity” value [3] of the same binder?
**A.** 100 IL6R-F652/IL6R-L = 100

B3: IL6R-BP253/IL6R-L (antibody, human IgG1, kappa)
heavy: B1 heavy with D235E, D239G, D240P, A269E, E270H, G273P, L330F, R332A, V398P
light: not shown
notes: Comparison control with existing alterations; copies: 2 + 2
**Q.** Which Kd [4] does the source give for B3 here?
**A.** 2.1 nM

**Q.** What about the Kd [5] of the same binder?
**A.** 0.067 nM

**Q.** And the Kd [6]?
**A.** 11 nM

**Q.** What about the Kd [7] of the same binder?
**A.** 3.6 µM

B4: IL6R-BP478/IL6R-L (antibody)
heavy: QVQLQESGPGLVKPSETLSLTCAVSGHSISHDHAWSWVRQPPGEGLEWIGFISYSGITNYNPSLQGRVTISRDNSKNTLYLQMNSLRAEDTAVYYCARSLARTTAMDYWGEGTLVTVSSASTKGPSVFPLAPCSRSTSESTAALGCLVKDYFPEPVTVSWNSGALTSGVHTFPAVLQSSGLYSLSSVVTVPSSSLGTKTYTCNVDHKPSNTKVDKRVESKYGPPCPPCPAPDLLGDDSVFLFPPKPKDTLMISRTPEVTCVVVDVSDEDGEVKFNWYVDGVEVHNAKTKPREEQDNSTYRVVSVLTVLHQDWLNGKEYKCKVSNKALPRPIEKTISKAKGQPREPQVYTLPPSRDELTKNQVSLTCLVKGFYPSDIAVEWESNGQPENNYKTTPPVLDSDGSFFLYSKLTVDKSRWQQGNVFSCSVMHEALHNHYTQESLSLSP
light: not shown
notes: copies: 2 + 2
**Q.** Which results are given for B4?
**A.** KD(IIaR) of parent polypeptide/KD(IIaR) of altered polypeptide [8]: 2; KD(IIb) of parent polypeptide/KD(IIb) of altered polypeptide [9]: 161; KD(IIaR)/KD(IIb) [10]: 28; Kd [11]: 540 nM; Kd [12]: 7.7 nM; Kd [13]: 19 nM

B5: IL6R-BP478/IL6R-L (antibody)
heavy: B4 heavy
light: not shown
notes: IL6R-BP230 in which Ala118-Thr225 (EU numbering) is replaced by Ala118-Pro222 of G4d; copies: 2 + 2
**Q.** How did the “fold against IL6R-BP230/IL6R-L” value [14] turn out when B5 was run?
**A.** 1.1 fold

**Q.** And the “fold against IL6R-BP230/IL6R-L” value [15]?
**A.** 1.1 fold

B6: 278-IgG1 (antibody, V domains shown)
VH: QSLEESGGRLVTPGTPLTLTCTASGFSLSSYHMSWVRQAPGKGLEWIGVINSAGNTYYASWAKGRFTVSKTSTTVDLNLTSLTTEDTATYFCARYVFSSGSHDIWGPGTLVTVSS
VL: AYDMTQTPASVEVAVGGTVTIKCQASQSIGSWLAWYQQKPGQPPKELIYGTSTLESGVPSRFIGSGSGTEFTLTISGVECADAATYYCQQGYSEDNIDNAFGGGTEVVVKR
notes: pH-dependent anti-human IgE antibody
**Q.** For B6, which kon (human IgE [16]) is on record?
**A.** 1.5e+06 M⁻¹ s⁻¹

**Q.** And the koff (human IgE [17])?
**A.** 0.24 s⁻¹

**Q.** What about the kon (human IgE [17]) of the same binder?
**A.** 62000 M⁻¹ s⁻¹

**Q.** And the koff (human IgE [18])?
**A.** 0.23 s⁻¹

**Q.** And the kon (human IgE [18])?
**A.** 120000 M⁻¹ s⁻¹

**Q.** What about the koff (human IgE [19]) of the same binder?
**A.** 0.0036 s⁻¹
